From US20240287501A1 (VIB VZW, published 2024) come the findings set out here.

For assay [1], the target named is T1, PDC1 (native, from EBY100 lysate) (Saccharomyces cerevisiae, UniProt P06169 2-563).
T1 construct: mature; Endogenous untagged protein; also called YLR044C
T1 sequence (looked up): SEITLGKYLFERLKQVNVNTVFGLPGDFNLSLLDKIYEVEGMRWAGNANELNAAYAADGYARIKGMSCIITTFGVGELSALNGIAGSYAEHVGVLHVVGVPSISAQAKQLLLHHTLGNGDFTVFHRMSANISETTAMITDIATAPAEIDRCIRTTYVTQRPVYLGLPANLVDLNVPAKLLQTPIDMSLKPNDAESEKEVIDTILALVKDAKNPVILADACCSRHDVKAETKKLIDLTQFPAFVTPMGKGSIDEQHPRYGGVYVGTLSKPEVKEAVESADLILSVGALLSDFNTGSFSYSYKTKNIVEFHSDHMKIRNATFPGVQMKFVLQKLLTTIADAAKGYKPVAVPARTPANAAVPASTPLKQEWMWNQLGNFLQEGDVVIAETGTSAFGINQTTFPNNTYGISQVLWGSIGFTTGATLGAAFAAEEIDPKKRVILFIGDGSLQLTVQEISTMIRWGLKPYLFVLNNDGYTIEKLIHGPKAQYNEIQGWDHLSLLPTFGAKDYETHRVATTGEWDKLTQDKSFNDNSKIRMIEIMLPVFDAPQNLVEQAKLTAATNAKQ
Briefly: co-immunoprecipitation, Nb coupled to NHS-agarose beads, EBY100 yeast lysate (native target), SDS-PAGE. On the procedure:
(§1) Two PDC1-specific Nanobodies (51=Nb clone CA17451 corresponding to SEQ ID NO: 7, 52=CA17452-SEQ ID NO: 8) were characterized by co-immunoprecipitation assays. Each PDC1-specific Nanobodies was covalently linked to NHS-agarose beads. The beads that were functionalized with these PDC1-specific Nanobodies were incubated for an hour at 4° C. on a rotating device with either an EBY100 lysate or the lysate of the engineered Yeast strain expressing PDC1 (Yeast GFP fusion collection reference: GFP(+)12, F8) as a GFP-tagged protein. After washing, these beads were resuspended in SDS-PAGE loading dye and analyzed on SDS-PAGE (FIG. 5A). Separated proteins were transferred to a PVDF membrane and the Western blot (FIG. 5B) was developed with GFP-specific antibody to confirm the presence of GFP-tagged PDC1.

For the next assay, the target named is T2, GFP-tagged PDC1 (Saccharomyces cerevisiae, UniProt P06169 2-563).
T2 construct: Yeast GFP Fusion Collection strain; also called Yeast GFP fusion collection GFP(+)12, F8; not shown: GFP tag
T2 sequence (looked up): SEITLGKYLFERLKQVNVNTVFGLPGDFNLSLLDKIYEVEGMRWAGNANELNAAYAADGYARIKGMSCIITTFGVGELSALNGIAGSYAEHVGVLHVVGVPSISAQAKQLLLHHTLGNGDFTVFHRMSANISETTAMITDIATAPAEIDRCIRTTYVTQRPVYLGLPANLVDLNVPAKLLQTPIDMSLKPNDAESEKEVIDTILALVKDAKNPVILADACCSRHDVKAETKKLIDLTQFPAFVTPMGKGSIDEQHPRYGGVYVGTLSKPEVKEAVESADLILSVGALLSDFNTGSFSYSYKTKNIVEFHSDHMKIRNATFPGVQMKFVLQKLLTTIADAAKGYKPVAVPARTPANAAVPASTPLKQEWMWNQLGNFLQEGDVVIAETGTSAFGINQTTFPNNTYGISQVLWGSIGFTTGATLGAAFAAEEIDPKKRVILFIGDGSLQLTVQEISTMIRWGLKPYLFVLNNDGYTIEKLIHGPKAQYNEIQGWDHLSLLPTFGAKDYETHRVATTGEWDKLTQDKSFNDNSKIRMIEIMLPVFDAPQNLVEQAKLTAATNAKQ
Briefly: co-immunoprecipitation, Nb coupled to NHS-agarose beads, lysate of the yeast strain expressing the GFP-tagged target, SDS-PAGE. On the procedure: as §1

The target in another assay is T3, GFP-tagged SBA1 (Saccharomyces cerevisiae, UniProt P28707 2-216).
T3 construct: Yeast GFP Fusion Collection strain; also called Yeast GFP fusion collection GFP(+)30, A6; YKL117W; not shown: GFP tag
T3 sequence (looked up): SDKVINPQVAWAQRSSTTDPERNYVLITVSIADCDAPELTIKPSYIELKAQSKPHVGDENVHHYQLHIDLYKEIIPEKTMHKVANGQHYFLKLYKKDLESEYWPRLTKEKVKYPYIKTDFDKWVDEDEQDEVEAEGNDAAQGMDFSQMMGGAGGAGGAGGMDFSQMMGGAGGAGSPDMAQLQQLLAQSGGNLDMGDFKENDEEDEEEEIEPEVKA
Briefly: co-immunoprecipitation, Nb coupled to NHS-agarose beads, lysate of the yeast strain expressing the GFP-tagged target, Western blot anti-GFP. The source says: One HSP104-specific Nanobody (04=CA18504 SEQ ID NO:40), one MET6-specific Nanobody (05=CA18505 SEQ ID NO:41), two SBA1-specific Nanobodies (08=Nb clone CA18508 corresponding to SEQ ID NO:42, 09=CA18509-SEQ ID NO:43), one SOD1-specific Nanobody (10=CA18510-SEQ ID NO:44), and a ENO1-specific Nanobody (38=CA17938-SEQ ID NO:45), were characterized by co-immunoprecipitation assays. Each POI-specific Nanobodies was covalently linked to NHS-agarose beads. The beads that were functionalized with these POI-specific Nanobodies were incubated for an hour at 4° C. on a rotating device with the lysate of the engineered Yeast strain expressing the POIs (Yeast GFP fusion collection reference: GFP(+)05, A2 (HSP104); GFP(+)07, D4 (MET6); GFP(+)30, A6 (SBA1); GFP(+)33, F8 (SOD1) and GFP(+)17, D12 (ENO1) as a GFP-tagged protein. After washing, these beads were analyzed on SDS-PAGE (not shown) and Western blot was developed with GFP-specific antibody to confirm the presence of GFP-tagged POIs.

Assay [2] has as its target T4, ALD6 (native, from EBY100 lysate) (Saccharomyces cerevisiae, UniProt P54115 2-500).
T4 construct: mature; Endogenous untagged protein; also called YPL061W
T4 sequence (looked up): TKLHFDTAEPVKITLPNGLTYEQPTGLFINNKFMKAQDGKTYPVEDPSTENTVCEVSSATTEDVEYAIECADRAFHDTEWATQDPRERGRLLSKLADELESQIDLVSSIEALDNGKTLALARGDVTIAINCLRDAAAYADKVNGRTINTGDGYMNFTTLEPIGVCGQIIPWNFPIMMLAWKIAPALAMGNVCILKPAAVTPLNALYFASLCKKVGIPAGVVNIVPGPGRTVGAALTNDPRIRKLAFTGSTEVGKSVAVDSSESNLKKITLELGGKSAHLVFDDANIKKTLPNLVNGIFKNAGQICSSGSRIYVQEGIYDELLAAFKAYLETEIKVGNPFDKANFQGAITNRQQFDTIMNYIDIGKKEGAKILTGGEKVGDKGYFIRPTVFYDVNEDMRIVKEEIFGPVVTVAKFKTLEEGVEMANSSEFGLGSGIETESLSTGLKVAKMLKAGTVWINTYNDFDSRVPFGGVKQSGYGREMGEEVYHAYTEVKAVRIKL
Briefly: co-IP, Nb on NHS-agarose beads, EBY100 yeast lysate, SDS-PAGE.

In another assay the target is T5, GFP-tagged ALD6 (Saccharomyces cerevisiae, UniProt P54115 2-500).
T5 construct: Yeast GFP Fusion Collection strain; also called Yeast GFP fusion collection GFP(+)15, F1; not shown: GFP tag
T5 sequence (looked up): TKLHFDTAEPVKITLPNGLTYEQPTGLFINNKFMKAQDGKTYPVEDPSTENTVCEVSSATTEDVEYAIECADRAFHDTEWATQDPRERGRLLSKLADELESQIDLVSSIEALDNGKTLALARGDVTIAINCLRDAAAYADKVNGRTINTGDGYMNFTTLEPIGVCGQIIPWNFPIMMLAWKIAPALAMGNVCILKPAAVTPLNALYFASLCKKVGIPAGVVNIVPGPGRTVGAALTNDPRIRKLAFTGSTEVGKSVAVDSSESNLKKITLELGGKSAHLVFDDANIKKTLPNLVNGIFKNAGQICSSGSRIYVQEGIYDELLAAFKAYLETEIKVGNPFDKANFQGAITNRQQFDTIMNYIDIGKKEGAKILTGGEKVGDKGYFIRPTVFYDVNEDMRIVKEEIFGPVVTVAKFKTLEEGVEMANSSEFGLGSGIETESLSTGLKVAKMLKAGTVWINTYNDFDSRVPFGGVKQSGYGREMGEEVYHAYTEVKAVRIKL
Briefly: co-immunoprecipitation, Nb coupled to NHS-agarose beads, lysate of the yeast strain expressing the GFP-tagged target, Western blot anti-GFP. On the procedure:
One SIS1-specific Nanobody (44=Nb clone CA17444 corresponding to SEQ ID NO: 9), three ALD6-specific Nanobodies (53=CA17453-SEQ ID NO: 10, 54=CA17454-SEQ ID NO: 11, 60=CA17460-SEQ ID NO: 12), two BMH1-specific Nanobodies (58=CA17458-SEQ ID NO: 13, 59=CA17459-SEQ ID NO: 14) were characterized by co-immunoprecipitation assays. Each target-specific Nanobodies was covalently linked to NHS-agarose beads. The beads that were functionalized with these target-specific Nanobodies were incubated for an hour at 4° C. on a rotating device with either an EBY100 lysate or the lysate of the engineered Yeast strain expressing the target (Yeast GFP fusion collection reference for SIS1: GFP(+)22, E5, for ALD6: GFP(+)15, F1, for BMH1: GFP(+)27, D5) as a GFP-tagged protein. After washing, these beads were resuspended in SDS-PAGE loading dye and analyzed on SDS-PAGE (FIG. 8A). Separated proteins were transferred to a PVDF membrane and the Western blot (FIG. 8B) was developed with GFP-specific antibody to confirm the presence of GFP-tagged targets.

The target in another assay is T6, GFP-tagged SSA1 (Saccharomyces cerevisiae, UniProt P10591 2-642).
T6 construct: Yeast GFP Fusion Collection strain; also called Yeast GFP fusion collection GFP(+)10, E4; not shown: GFP tag
T6 sequence (P10591 2-642): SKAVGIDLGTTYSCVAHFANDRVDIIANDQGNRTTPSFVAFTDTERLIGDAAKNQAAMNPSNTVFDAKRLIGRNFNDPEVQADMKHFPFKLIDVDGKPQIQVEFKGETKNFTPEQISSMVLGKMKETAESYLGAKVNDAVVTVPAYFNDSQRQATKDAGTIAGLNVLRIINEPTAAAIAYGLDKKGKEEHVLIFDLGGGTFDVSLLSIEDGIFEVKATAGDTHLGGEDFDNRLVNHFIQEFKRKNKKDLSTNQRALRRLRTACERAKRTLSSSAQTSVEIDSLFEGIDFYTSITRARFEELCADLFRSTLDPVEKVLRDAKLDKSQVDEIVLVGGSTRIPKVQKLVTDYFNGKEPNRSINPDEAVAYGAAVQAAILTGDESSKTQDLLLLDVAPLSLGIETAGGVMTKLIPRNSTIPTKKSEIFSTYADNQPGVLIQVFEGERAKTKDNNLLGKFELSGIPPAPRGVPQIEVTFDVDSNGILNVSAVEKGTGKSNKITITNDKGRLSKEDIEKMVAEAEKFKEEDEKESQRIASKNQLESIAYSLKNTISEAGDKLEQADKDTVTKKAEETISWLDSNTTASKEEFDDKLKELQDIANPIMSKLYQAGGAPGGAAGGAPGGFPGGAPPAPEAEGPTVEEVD
Briefly: co-immunoprecipitation, Nb coupled to NHS-agarose beads, lysate of the yeast strain expressing the GFP-tagged target, SDS-PAGE. On the procedure: (§2) Six SSA1-specific Nanobodies (60=Nb clone CA17560 corresponding to SEQ ID NO: 19, 61=CA17561-SEQ ID NO: 20, 62=CA17562-SEQ ID NO: 21, 63=CA17563-SEQ ID NO: 22, 64=CA17564-SEQ ID NO: 23, 65=CA17565-SEQ ID NO: 24) were characterized by co-immunoprecipitation assays. Each SSA1-specific Nanobodies was covalently linked to NHS-agarose beads. The beads that were functionalized with these SSA1-specific Nanobodies were incubated for an hour at 4° C. on a rotating device with either an EBY100 lysate or the lysate of the engineered Yeast strain expressing SSA1 (Yeast GFP fusion collection reference: GFP(+)10, E4) as a GFP-tagged protein. After washing, these beads were resuspended in SDS-PAGE loading dye and analyzed on SDS-PAGE (FIG. 6A). Separated proteins were transferred to a PVDF membrane and the Western blot (FIG. 6B) was developed with GFP-specific antibody to confirm the presence of GFP-tagged SSA1.

Assay [3] deals with T7, SSA1 (native, from EBY100 lysate) (Saccharomyces cerevisiae, UniProt P10591 2-642).
T7 construct: mature; Endogenous untagged protein; also called YAL005C
T7 sequence (P10591 2-642): as above
Briefly: co-IP, Nb on NHS-agarose beads, EBY100 yeast lysate, SDS-PAGE.

The target in assay [4] is T7, SSA1 (native, from EBY100 lysate). Briefly: co-immunoprecipitation, Nb coupled to NHS-agarose beads, EBY100 yeast lysate (native target), SDS-PAGE. On the procedure: as §2

B1: CA17451 (VHH)
VHH: QVQLVESGGGLVQPGGSLRLSCAASGISFSINTLGWYRQAPGKQRELVATVTTGGSTYYVDSAKGRFTVSRDNAKNTVYLQMNSLNSEDTAVYYCKLERYGVWGQGTQVTVSS
notes: C-terminal 6xHis-EPEA tag is part of the entry
Turning to B1, the binding result (in assay [1]; with GFP-tagged PDC1) was “binds” each time.

B2: CA18508 (VHH)
VHH: QVQLVESGGGLVQPGGSLRLSCAASGFTFSNTAMSWYRQAPGKERELVAVSTSAGGGTDYADSVQGRFTISRDNAKNTVYLQMNDLKPEDTAVYYCYAVGRYRSSWRLLPFGSWGQGTQVTVSS
notes: as for B1
In the case of B2, the binding result in the assay with GFP-tagged SBA1 is “binds”.

B3: CA17453 (VHH)
VHH: QVQLVESGGGVVQPGGSLRLSCAASGRIFIRSAWYRQAPGKQRALVASIFSGGTTNYADSVKGRFTISRDNAKNTVILEMNNLKPEDTAVYYCNVRVRSGTDYWGQGTQVTVSS
notes: as for B1
B3: the binding result (in assay [2]; with GFP-tagged ALD6) was “binds” each time.

B4: CA17561 (VHH)
VHH: QVQLVESGGGLVQAGGSLRLSCAASTRTFSNYVMAWFRQAPGKEREFVGAINWSGGTEYYADSVKGRFTISRDNAKNTVYLQMNDLNPEDTANYYCAARRGTIARTALVKYLEYDYWGQGTQVTVSS
notes: as for B1
In the case of B4, the binding result (with GFP-tagged SSA1; in assay [3]) was “binds” each time.

B5: CA17560 (VHH)
VHH: QVQLVESGGGLVHSGGSLRLSCVASGGAFNDYTMGWFRQAPGKERQFVAAITWSSGVTSYSDSVRGRFVISRDIAKNTVYLQMNSLNPEETAVYVCAARLGVSSSPNSQISHRYDYWGQGTQVTVSS
notes: as for B1
Consider B5, for which the binding result (in assay [4]; with GFP-tagged SSA1) was “binds” each time.

B6: CA17460 (VHH)
VHH: QVQLVESGGGLVQPGDSLRLSCAASGFTVSTNTMTWVRQAPGKGLEWVSTKYSTGGTTYANSVKGRFTISRDNAKNTLYLQMNNLKPEDTAVYYCGGADYRGQGTQVTVSS
notes: as for B1
For the molecule B6, the binding result (in assay [2]; with GFP-tagged ALD6) was “binds” throughout.

B7: CA18509 (VHH)
VHH: QVQLVESGGGLVQPGGSLRLSCAAAGFTFRMLDMSWYRQAPGKERELVATITSVSGTTNYADSVKGRVTISRDNAKNTVYLQMNSLKPEDTAVYYCNARMAAWGLDYWGQGTQVTVSS
notes: as for B1
Regarding B7, in the assay with GFP-tagged SBA1, the binding result is given as “binds”.

B8: CA17454 (VHH)
VHH: QVQLVESGGGLVQPGGSLRLSCAASGSIFSRNYIAWYRQAPGKQRELVARKTQSGATVYADSVKGRFTISTNNAKNTMYLQMNILKPEDTAVYYCNAGGLIGSWGQGTQVTVSS
notes: as for B1
B8: the binding result (in assay [2]; in the assay with GFP-tagged ALD6) was “binds” each time.

B9: CA17452 (VHH)
VHH: QVQLVESGGGLVQAGASLTLSCAASGRTFNTYSMHWFRQAPGKEREFVAATNWGGNSKFYADSVRGRFTISRDNTKNMVYLQMNSLKPEDTAVYYCAAHRTVVGKTPDYWGQGTQVTVSS
notes: as for B1
With B9, the binding result (in assay [1]; with GFP-tagged PDC1) was “binds” each time.
